Reference: the Human Domainome abundance scans (Beltran et al. 2025)
± gives the uncertainty stated by the source.

B1: Serine/threonine-protein kinase A-Raf, residues 21 to 89; numbered along this chain, P10398 (parent)
chain: VKVYLPNKQRTVVTVRDGMSVYDSLDKALKVRGLNQDCCVVYRLIKGRKTVTAWDTAIAPLDGEELIVE

Variants of: B1
Experiment: abundance fitness (aPCA) (normalised: wild type 0, dead -1); higher = more abundant; growth selection in yeast, the domain comes from the species named
Conditions: Homo sapiens

| Variant | abundance fitness |
| --- | --- |
| VKPYLPNKQRTVVTVRDGMSVYDSLDKALKVRGLNQDCCVVYRLIKGRKTVTAWDTAIAPLDGEELIVE | -1.01 ± 0.13 |
| VKWYLPNKQRTVVTVRDGMSVYDSLDKALKVRGLNQDCCVVYRLIKGRKTVTAWDTAIAPLDGEELIVE | -0.877 ± 0.1 |
| VKQYLPNKQRTVVTVRDGMSVYDSLDKALKVRGLNQDCCVVYRLIKGRKTVTAWDTAIAPLDGEELIVE | -1.02 ± 0.23 |
| VKTYLPNKQRTVVTVRDGMSVYDSLDKALKVRGLNQDCCVVYRLIKGRKTVTAWDTAIAPLDGEELIVE | -0.985 ± 0.15 |
| VKRYLPNKQRTVVTVRDGMSVYDSLDKALKVRGLNQDCCVVYRLIKGRKTVTAWDTAIAPLDGEELIVE | -0.808 ± 0.089 |
| VKSYLPNKQRTVVTVRDGMSVYDSLDKALKVRGLNQDCCVVYRLIKGRKTVTAWDTAIAPLDGEELIVE | -0.856 ± 0.09 |
| VKYYLPNKQRTVVTVRDGMSVYDSLDKALKVRGLNQDCCVVYRLIKGRKTVTAWDTAIAPLDGEELIVE | -0.016 ± 0.14 |
| VKVYLPSKQRTVVTVRDGMSVYDSLDKALKVRGLNQDCCVVYRLIKGRKTVTAWDTAIAPLDGEELIVE | -0.321 ± 0.042 |
| VKVYLPVKQRTVVTVRDGMSVYDSLDKALKVRGLNQDCCVVYRLIKGRKTVTAWDTAIAPLDGEELIVE | -0.929 ± 0.073 |
| VKVYLPPKQRTVVTVRDGMSVYDSLDKALKVRGLNQDCCVVYRLIKGRKTVTAWDTAIAPLDGEELIVE | -0.861 ± 0.1 |
| VKVYLPFKQRTVVTVRDGMSVYDSLDKALKVRGLNQDCCVVYRLIKGRKTVTAWDTAIAPLDGEELIVE | -0.49 ± 0.055 |
| VKVYLPAKQRTVVTVRDGMSVYDSLDKALKVRGLNQDCCVVYRLIKGRKTVTAWDTAIAPLDGEELIVE | -0.44 ± 0.041 |
| VKVYLPKKQRTVVTVRDGMSVYDSLDKALKVRGLNQDCCVVYRLIKGRKTVTAWDTAIAPLDGEELIVE | -0.343 ± 0.055 |
| VKVYLPIKQRTVVTVRDGMSVYDSLDKALKVRGLNQDCCVVYRLIKGRKTVTAWDTAIAPLDGEELIVE | -0.936 ± 0.15 |
| VKVYLPDKQRTVVTVRDGMSVYDSLDKALKVRGLNQDCCVVYRLIKGRKTVTAWDTAIAPLDGEELIVE | 0.039 ± 0.054 |
| VKVYLPYKQRTVVTVRDGMSVYDSLDKALKVRGLNQDCCVVYRLIKGRKTVTAWDTAIAPLDGEELIVE | -0.19 ± 0.087 |
| VKVYLPHKQRTVVTVRDGMSVYDSLDKALKVRGLNQDCCVVYRLIKGRKTVTAWDTAIAPLDGEELIVE | -0.272 ± 0.065 |
| VKVYLPTKQRTVVTVRDGMSVYDSLDKALKVRGLNQDCCVVYRLIKGRKTVTAWDTAIAPLDGEELIVE | -0.655 ± 0.072 |
| VKVYLPEKQRTVVTVRDGMSVYDSLDKALKVRGLNQDCCVVYRLIKGRKTVTAWDTAIAPLDGEELIVE | -0.17 ± 0.036 |
| VKVYLPMKQRTVVTVRDGMSVYDSLDKALKVRGLNQDCCVVYRLIKGRKTVTAWDTAIAPLDGEELIVE | -0.406 ± 0.039 |
| VKVYLPCKQRTVVTVRDGMSVYDSLDKALKVRGLNQDCCVVYRLIKGRKTVTAWDTAIAPLDGEELIVE | -0.521 ± 0.079 |
| VKVYLPLKQRTVVTVRDGMSVYDSLDKALKVRGLNQDCCVVYRLIKGRKTVTAWDTAIAPLDGEELIVE | -0.735 ± 0.05 |
| VKVYLPQKQRTVVTVRDGMSVYDSLDKALKVRGLNQDCCVVYRLIKGRKTVTAWDTAIAPLDGEELIVE | -0.216 ± 0.071 |
| VKVYLPGKQRTVVTVRDGMSVYDSLDKALKVRGLNQDCCVVYRLIKGRKTVTAWDTAIAPLDGEELIVE | 0.041 ± 0.026 |
| VKVYLPNHQRTVVTVRDGMSVYDSLDKALKVRGLNQDCCVVYRLIKGRKTVTAWDTAIAPLDGEELIVE | -0.102 ± 0.11 |
| VKVYLPNMQRTVVTVRDGMSVYDSLDKALKVRGLNQDCCVVYRLIKGRKTVTAWDTAIAPLDGEELIVE | -0.107 ± 0.042 |

| Variant | abundance fitness |
| --- | --- |
| VKVYLPNPQRTVVTVRDGMSVYDSLDKALKVRGLNQDCCVVYRLIKGRKTVTAWDTAIAPLDGEELIVE | -1.02 ± 0.18 |
| VKVYLPNRQRTVVTVRDGMSVYDSLDKALKVRGLNQDCCVVYRLIKGRKTVTAWDTAIAPLDGEELIVE | -0.005 ± 0.04 |
| VKVYLPNIQRTVVTVRDGMSVYDSLDKALKVRGLNQDCCVVYRLIKGRKTVTAWDTAIAPLDGEELIVE | -0.683 ± 0.16 |
| VKVYLPNSQRTVVTVRDGMSVYDSLDKALKVRGLNQDCCVVYRLIKGRKTVTAWDTAIAPLDGEELIVE | -0.111 ± 0.04 |
| VKVYLPNAQRTVVTVRDGMSVYDSLDKALKVRGLNQDCCVVYRLIKGRKTVTAWDTAIAPLDGEELIVE | -0.042 ± 0.048 |
| VKVYLPNLQRTVVTVRDGMSVYDSLDKALKVRGLNQDCCVVYRLIKGRKTVTAWDTAIAPLDGEELIVE | -0.363 ± 0.037 |
| VKVYLPNNQRTVVTVRDGMSVYDSLDKALKVRGLNQDCCVVYRLIKGRKTVTAWDTAIAPLDGEELIVE | 0.132 ± 0.073 |
| VKVYLPNCQRTVVTVRDGMSVYDSLDKALKVRGLNQDCCVVYRLIKGRKTVTAWDTAIAPLDGEELIVE | -0.243 ± 0.068 |
| VKVYLPNFQRTVVTVRDGMSVYDSLDKALKVRGLNQDCCVVYRLIKGRKTVTAWDTAIAPLDGEELIVE | -0.363 ± 0.072 |
| VKVYLPNTQRTVVTVRDGMSVYDSLDKALKVRGLNQDCCVVYRLIKGRKTVTAWDTAIAPLDGEELIVE | -0.286 ± 0.052 |
| VKVYLPNQQRTVVTVRDGMSVYDSLDKALKVRGLNQDCCVVYRLIKGRKTVTAWDTAIAPLDGEELIVE | -0.031 ± 0.054 |
| VKVYLPNGQRTVVTVRDGMSVYDSLDKALKVRGLNQDCCVVYRLIKGRKTVTAWDTAIAPLDGEELIVE | 0.16 ± 0.033 |
| VKVYLPNDQRTVVTVRDGMSVYDSLDKALKVRGLNQDCCVVYRLIKGRKTVTAWDTAIAPLDGEELIVE | -0.133 ± 0.1 |
| VKVYLPNEQRTVVTVRDGMSVYDSLDKALKVRGLNQDCCVVYRLIKGRKTVTAWDTAIAPLDGEELIVE | 0 ± 0.043 |
| VKVRLPNKQRTVVTVRDGMSVYDSLDKALKVRGLNQDCCVVYRLIKGRKTVTAWDTAIAPLDGEELIVE | 0 ± 0.035 |
| VKVCLPNKQRTVVTVRDGMSVYDSLDKALKVRGLNQDCCVVYRLIKGRKTVTAWDTAIAPLDGEELIVE | -0.366 ± 0.098 |
| VKVVLPNKQRTVVTVRDGMSVYDSLDKALKVRGLNQDCCVVYRLIKGRKTVTAWDTAIAPLDGEELIVE | 0.011 ± 0.047 |
| VKVGLPNKQRTVVTVRDGMSVYDSLDKALKVRGLNQDCCVVYRLIKGRKTVTAWDTAIAPLDGEELIVE | -0.663 ± 0.069 |
| VKVTLPNKQRTVVTVRDGMSVYDSLDKALKVRGLNQDCCVVYRLIKGRKTVTAWDTAIAPLDGEELIVE | -0.101 ± 0.061 |
| VKVQLPNKQRTVVTVRDGMSVYDSLDKALKVRGLNQDCCVVYRLIKGRKTVTAWDTAIAPLDGEELIVE | 0.009 ± 0.059 |
| VKVWLPNKQRTVVTVRDGMSVYDSLDKALKVRGLNQDCCVVYRLIKGRKTVTAWDTAIAPLDGEELIVE | -0.045 ± 0.05 |
| VKVSLPNKQRTVVTVRDGMSVYDSLDKALKVRGLNQDCCVVYRLIKGRKTVTAWDTAIAPLDGEELIVE | -0.022 ± 0.047 |
| VKVKLPNKQRTVVTVRDGMSVYDSLDKALKVRGLNQDCCVVYRLIKGRKTVTAWDTAIAPLDGEELIVE | 0.069 ± 0.059 |
| VKVELPNKQRTVVTVRDGMSVYDSLDKALKVRGLNQDCCVVYRLIKGRKTVTAWDTAIAPLDGEELIVE | -0.133 ± 0.048 |
| VKVDLPNKQRTVVTVRDGMSVYDSLDKALKVRGLNQDCCVVYRLIKGRKTVTAWDTAIAPLDGEELIVE | -0.601 ± 0.11 |
| VKVALPNKQRTVVTVRDGMSVYDSLDKALKVRGLNQDCCVVYRLIKGRKTVTAWDTAIAPLDGEELIVE | -0.217 ± 0.061 |

| Variant | abundance fitness |
| --- | --- |
| VKVFLPNKQRTVVTVRDGMSVYDSLDKALKVRGLNQDCCVVYRLIKGRKTVTAWDTAIAPLDGEELIVE | -0.063 ± 0.077 |
| VKVLLPNKQRTVVTVRDGMSVYDSLDKALKVRGLNQDCCVVYRLIKGRKTVTAWDTAIAPLDGEELIVE | 0.068 ± 0.042 |
| VKVHLPNKQRTVVTVRDGMSVYDSLDKALKVRGLNQDCCVVYRLIKGRKTVTAWDTAIAPLDGEELIVE | 0.048 ± 0.094 |
| VKVMLPNKQRTVVTVRDGMSVYDSLDKALKVRGLNQDCCVVYRLIKGRKTVTAWDTAIAPLDGEELIVE | 0.032 ± 0.06 |
| VKVILPNKQRTVVTVRDGMSVYDSLDKALKVRGLNQDCCVVYRLIKGRKTVTAWDTAIAPLDGEELIVE | -0.001 ± 0.15 |
| VKVPLPNKQRTVVTVRDGMSVYDSLDKALKVRGLNQDCCVVYRLIKGRKTVTAWDTAIAPLDGEELIVE | -0.96 ± 0.23 |
| VKVYLLNKQRTVVTVRDGMSVYDSLDKALKVRGLNQDCCVVYRLIKGRKTVTAWDTAIAPLDGEELIVE | -0.804 ± 0.21 |
| VKVYLSNKQRTVVTVRDGMSVYDSLDKALKVRGLNQDCCVVYRLIKGRKTVTAWDTAIAPLDGEELIVE | -0.233 ± 0.24 |
| VKVYLWNKQRTVVTVRDGMSVYDSLDKALKVRGLNQDCCVVYRLIKGRKTVTAWDTAIAPLDGEELIVE | -1.01 ± 0.37 |
| VKVYLHNKQRTVVTVRDGMSVYDSLDKALKVRGLNQDCCVVYRLIKGRKTVTAWDTAIAPLDGEELIVE | -0.683 ± 0.34 |
| VKVYLGNKQRTVVTVRDGMSVYDSLDKALKVRGLNQDCCVVYRLIKGRKTVTAWDTAIAPLDGEELIVE | -0.463 ± 0.28 |
| VKVYLCNKQRTVVTVRDGMSVYDSLDKALKVRGLNQDCCVVYRLIKGRKTVTAWDTAIAPLDGEELIVE | -0.55 ± 0.24 |
| VKVYLQNKQRTVVTVRDGMSVYDSLDKALKVRGLNQDCCVVYRLIKGRKTVTAWDTAIAPLDGEELIVE | -0.363 ± 0.17 |
| VKVYWPNKQRTVVTVRDGMSVYDSLDKALKVRGLNQDCCVVYRLIKGRKTVTAWDTAIAPLDGEELIVE | 0.113 ± 0.062 |
| VKVYMPNKQRTVVTVRDGMSVYDSLDKALKVRGLNQDCCVVYRLIKGRKTVTAWDTAIAPLDGEELIVE | -0.064 ± 0.058 |
| VKVYKPNKQRTVVTVRDGMSVYDSLDKALKVRGLNQDCCVVYRLIKGRKTVTAWDTAIAPLDGEELIVE | -0.99 ± 0.16 |
| VKVYVPNKQRTVVTVRDGMSVYDSLDKALKVRGLNQDCCVVYRLIKGRKTVTAWDTAIAPLDGEELIVE | -0.896 ± 0.12 |
| VKVYCPNKQRTVVTVRDGMSVYDSLDKALKVRGLNQDCCVVYRLIKGRKTVTAWDTAIAPLDGEELIVE | -0.784 ± 0.14 |
| VKVYAPNKQRTVVTVRDGMSVYDSLDKALKVRGLNQDCCVVYRLIKGRKTVTAWDTAIAPLDGEELIVE | -0.772 ± 0.15 |
| VKVYPPNKQRTVVTVRDGMSVYDSLDKALKVRGLNQDCCVVYRLIKGRKTVTAWDTAIAPLDGEELIVE | -0.778 ± 0.18 |
| VKVYTPNKQRTVVTVRDGMSVYDSLDKALKVRGLNQDCCVVYRLIKGRKTVTAWDTAIAPLDGEELIVE | -0.916 ± 0.13 |
| VKVYSPNKQRTVVTVRDGMSVYDSLDKALKVRGLNQDCCVVYRLIKGRKTVTAWDTAIAPLDGEELIVE | -0.818 ± 0.1 |
| VKVYQPNKQRTVVTVRDGMSVYDSLDKALKVRGLNQDCCVVYRLIKGRKTVTAWDTAIAPLDGEELIVE | -0.87 ± 0.21 |
| VKVYEPNKQRTVVTVRDGMSVYDSLDKALKVRGLNQDCCVVYRLIKGRKTVTAWDTAIAPLDGEELIVE | -0.844 ± 0.21 |
| VKVYFPNKQRTVVTVRDGMSVYDSLDKALKVRGLNQDCCVVYRLIKGRKTVTAWDTAIAPLDGEELIVE | 0.102 ± 0.097 |
| VKVYRPNKQRTVVTVRDGMSVYDSLDKALKVRGLNQDCCVVYRLIKGRKTVTAWDTAIAPLDGEELIVE | -1.1 ± 0.12 |
